Reference: patent publication US20150011567

Experiments:
[1] = system: biotinylated H4-derived unphosphorylated peptide TVTAMDVVYALKRQGRT
[2] = system: biotinylated human histone H2B derived peptide KRSRKESYSVYVYKVL
[3] = system: purified human H2A recombinant protein (NEB)
[4] = system: purified human H2B recombinant protein (NEB)
[5] = system: purified human H3 recombinant protein (NEB)
[6] = molecular target: purified human H4 recombinant protein (NEB) (UniProt P62805)

recombinant GST-WEE1 protein (Invitrogen), sequence (chain, as listed by the source): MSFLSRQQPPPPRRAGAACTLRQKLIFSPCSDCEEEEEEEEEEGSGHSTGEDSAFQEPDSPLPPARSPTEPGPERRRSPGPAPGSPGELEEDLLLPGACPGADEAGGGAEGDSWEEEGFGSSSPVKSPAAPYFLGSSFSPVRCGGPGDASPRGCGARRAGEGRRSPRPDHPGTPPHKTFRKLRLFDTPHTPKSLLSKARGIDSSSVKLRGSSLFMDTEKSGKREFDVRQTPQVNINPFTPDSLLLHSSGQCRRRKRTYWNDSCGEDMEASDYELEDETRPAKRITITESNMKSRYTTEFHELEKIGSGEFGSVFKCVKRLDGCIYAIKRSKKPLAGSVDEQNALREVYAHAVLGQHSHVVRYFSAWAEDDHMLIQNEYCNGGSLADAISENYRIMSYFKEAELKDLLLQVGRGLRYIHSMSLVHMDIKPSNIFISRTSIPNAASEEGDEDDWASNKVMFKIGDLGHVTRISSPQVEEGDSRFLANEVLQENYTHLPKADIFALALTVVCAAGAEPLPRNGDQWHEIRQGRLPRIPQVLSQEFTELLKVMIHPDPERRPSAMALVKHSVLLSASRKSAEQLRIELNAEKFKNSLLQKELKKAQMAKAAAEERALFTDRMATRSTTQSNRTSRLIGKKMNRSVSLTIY

Row | Substance | in vitro kinase assay on plate-bound peptide, ELISA with pY88-H4 antibodies [1] | Peptide Immunosandwich Assay (PIA), H2B Tyr37-phosphorylation read at 450 nm [2] | in vitro kinase assay, immunoblot with pTyr37-H2B antibody [3] | in vitro kinase assay, immunoblot with pTyr37-H2B antibody [4] | in vitro kinase assay, immunoblot with pTyr37-H2B antibody [5] | in vitro kinase assay, immunoblot with pTyr37-H2B antibody [6]
1 | purified WEE1 protein (Examples 5 and 7) | Incubation of H4 peptide with WEE1 and Ack1 protein resulted in robust H4 Tyr88-phosphorylation | Purified WEE1 exhibited robust H2B Tyr37-phosphorylation |  |  |  | 
2 | recombinant GST-WEE1 protein (Invitrogen) |  |  | failed to phosphorylate other three core histones, H2A, H3 and H4 | When purified WEE1 and H2B were incubated, H2B was Tyr37-phosphorylated | failed to phosphorylate other three core histones, H2A, H3 and H4 | failed to phosphorylate other three core histones, H2A, H3 and H4
